As a reminder, the stoichiometry N is the number of molecules, sites or subunits per partner or assembly. What is called Kd is the constant that tells how readily two partners part at equilibrium.

Data on 7 molecules can be found in PMC9202080, “Evolution of homo‐oligomerization of methionine S‐adenosyltransferases is replete with structure–function constrains” (Protein Science : A Publication of the Protein Society, 2022).

Data set [1] has as its target T1, NgMAT (Neisseria gonorrhoeae, UniProt Q5FAC0).
T1 construct: gene metK; full length, C-terminal His6 tag, codon-optimised synthetic gene, E. coli BL21(DE3), dimer without substrates, functional homotetramer with substrates
T1 sequence (Q5FAC0 1-389): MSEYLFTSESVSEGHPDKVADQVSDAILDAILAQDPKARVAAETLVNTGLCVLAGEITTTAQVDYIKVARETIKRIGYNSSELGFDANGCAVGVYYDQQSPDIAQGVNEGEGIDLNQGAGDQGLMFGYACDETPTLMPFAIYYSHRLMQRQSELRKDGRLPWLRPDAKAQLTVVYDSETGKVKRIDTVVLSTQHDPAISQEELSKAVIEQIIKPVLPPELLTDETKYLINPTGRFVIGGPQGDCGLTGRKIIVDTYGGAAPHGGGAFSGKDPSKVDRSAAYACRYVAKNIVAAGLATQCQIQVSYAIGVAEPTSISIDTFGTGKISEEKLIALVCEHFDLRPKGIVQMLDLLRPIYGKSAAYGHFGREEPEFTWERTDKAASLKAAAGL
The data set can be described thus: SAM formation, size exclusion chromatography. Type of data set: biochemical. (In gel filtration, larger molecules generally elute earlier.)

Data set [2] deals with T1, NgMAT. The data set can be described thus: size exclusion chromatography, ligand-induced tetramerization. Type of data set: binding. The conditions noted are these: 10 uM NgMAT; AMP-PNP alone or with methionine.
Data set [3] deals with the molecule itself. Nature of the data set: crystal structure; LpMAT + 5 mM AMPPNP + 5 mM methionine, 2.82 Å, space group P1, eight copies in the asymmetric unit.
Data set [4] concerns the molecule itself. Nature of the data set: crystal structure; EcMATmut + 5 mM AMPPNP + 5 mM methionine, 1.6 Å, space group P42212, one copy in the asymmetric unit.
Data set [5] deals with the molecule itself. The data set can be described thus: SEC; diluted from ~300 μM stocks to 10 μM, incubated 100 hr at 25°C in 50% glycerol, sampled by SEC until equilibrium (~75 hr); Kd calculated from the tetrameric fraction; tetramer to dimers.
Data set [6] concerns the molecule itself. The data set can be described thus: SEC; Superdex 200 Increase, 25 mM TrisHCl, 150 mM KCl, 1 mM DTT; protein diluted from a 300 μM stock, pre-incubated diluted for an hour, then injected; EcMAT 1.56–100 μM, NgMAT 10–100 μM; no substrates.
Data set [7] deals with the molecule itself. Nature of the data set: SEC; 10 μM NgMAT pre-incubated with saturated methionine and ATP together.
Data set [8] deals with the molecule itself. Nature of the data set: SEC; 10 μM NgMAT pre-incubated with saturated methionine alone or ATP alone.

For the molecule `Nc1ncnc2c1ncn2[C@@H]1O[C@H](COP(=O)(O)OP(=O)(O)OP(=O)(O)O)[C@@H](O)[C@H]1O` [ATP], the “SAM formation, size exclusion chromatography” value on NgMAT [1] (10 uM NgMAT with methionine) is listed as “in the presence of both substrates we saw a marked shift of NgMAT toward tetramerization”.

Turning to `Nc1ncnc2c1ncn2[C@@H]1O[C@H](COP(=O)(O)OP(=O)(O)NP(=O)(O)O)[C@@H](O)[C@H]1O` [AMP-PNP], the “size exclusion chromatography, ligand-induced tetramerization” value on NgMAT [2] was “We found that AMP‐PNP increased the tetrameric species substantially”.

`CSCC[C@H](N)C(=O)O` [methionine]: the “SAM formation, size exclusion chromatography” value at NgMAT [1] (10 uM NgMAT with ATP) is “in the presence of both substrates we saw a marked shift of NgMAT toward tetramerization”.

B1: Lactiplantibacillus plantarum methionine S-adenosyltransferase (enzyme, UniProt Q88XB8 1-395, looked up)
chain: MSERHLFTSESVSEGHPDKIADQISDAILDAMLAQDPQARVAVETSVTTGLVLVFGEVSTKAYVDIQKVVRDTIKSIGYVDGQYGFDGDNCAVLVSLDEQSPDIAQGVDDSLETRSGDADPLDQIGAGDQGMMFGYAINETPELMPLPIALSHRLMRKIAALRKDGTIKWLRPDAKAQVTVEYDEDNQPKRIDTVVLSTQHDPDVDLDTIRQTVIDQVIKAVLPADLLDDQTKYLVNPTGRFVIGGPQGDAGLTGRKVIVDTYGGFAHHGGGAFSGKDATKVDRSASYAARYIAKNVVAAGLADQVEVQLAYAIGVAEPVSIAVDTAGTGKVSDEALINAIRENFDLRPAGIIKMLDLQRPIYRQTAAYGHFGRTDIDLPWEHTDKVDALKAVFK
notes: also called LpMAT; MAT from Lactiplantibacillus planatrum; source: E. coli BL21 (DE3), pET24a, purified (Ni-NTA)
As to B1, the “stoichiometry N” value in data set [3] came out at 2.

B2: Escherichia coli methionine S-adenosyltransferase E67K K98Q (enzyme)
chain: MAKHLFTSESVSEGHPDKIADQISDAVLDAILEQDPKARVACETYVKTGMVLVGGEITTSAWVDIEKITRNTVREIGYVHSDMGFDANSCAVLSAIGQQSPDINQGVDRADPLEQGAGDQGLMFGYATNETDVLMPAPITYAHRLVQRQAEVRKNGTLPWLRPDAKSQVTFQYDDGKIVGIDAVVLSTQHSEEIDQKSLQEAVMEEIIKPILPAEWLTSATKFFINPTGRFVIGGPMGDCGLTGRKIIVDTYGGMARHGGGAFSGKDPSKVDRSAAYAARYVAKNIVAAGLADRCEIQVSYAIGVAEPTSIMVETFGTEKVPSEQLTLLVREFFDLRPYGLIQMLDLLHPIYKETAAYGHFGREHFPWEKTDKAQLLRDAAGLK
notes: methionine S-adenosyltransferase (MAT) of Escherichia coli with the salt-bridge residues of the small interface swapped to those of NgMAT; made from the EcMAT construct by site directed mutagenesis; also called EcMATmut; E. coli E67K K98Q; source: E. coli BL21 (DE3), pET24a, purified (Ni-NTA)
In the case of B2, in data set [4], the “stoichiometry N” value was determined as 4. Besides, in data set [5], the Kd is 90.3 µM.

B3: Escherichia coli methionine S-adenosyltransferase (enzyme)
chain: AKHLFTSESVSEGHPDKIADQISDAVLDAILEQDPKARVACETYVKTGMVLVGGEITTSAWVDIEEITRNTVREIGYVHSDMGFDANSCAVLSAIGKQSPDINQGVDRADPLEQGAGDQGLMFGYATNETDVLMPAPITYAHRLVQRQAEVRKNGTLPWLRPDAKSQVTFQYDDGKIVGIDAVVLSTQHSEEIDQKSLQEAVMEEIIKPILPAEWLTSATKFFINPTGRFVIGGPMGDCGLTGRKIIVDTYGGMARHGGGAFSGKDPSKVDRSAAYAARYVAKNIVAAGLADRCEIQVSYAIGVAEPTSIMVETFGTEKVPSEQLTLLVREFFDLRPYGLIQMLDLLHPIYKETAAYGHFGREHFPWEKTDKAQLLRDAAGLK
notes: methionine S-adenosyltransferase (MAT) of Escherichia coli; Homotetramer (dimer of dimers) in solution; the self-association rows are of this chain with itself; also called EcMAT; E. coli MAT; source: E. coli BL21 (DE3), pET24a, purified (Ni-NTA)
For the molecule B3, in data set [6], the “stoichiometry N” value was 4. The Kd in data set [5] was 8.2 µM.

B4: Neisseria gonorrhoeae methionine S-adenosyltransferase (enzyme, UniProt B4RQ36 1-389, looked up)
chain: MSEYLFTSESVSEGHPDKVADQVSDAILDAILAQDPKARVAAETLVNTGLCVLAGEITTTAQVDYIKVARETIKRIGYNSSELGFDANGCAVGVYYDQQSPDIAQGVNEGEGIDLNQGAGDQGLMFGYACDETPTLMPFAIYYSHRLMQRQSELRKDGRLPWLRPDAKAQLTVVYDSETGKVKRIDTVVLSTQHDPAISHEELSKAVIEQIIKPVLPPELLTDETKYLINPTGRFVIGGPQGDCGLTGRKIIVDTYGGAAPHGGGAFSGKDPSKVDRSAAYACRYVAKNIVAAGLATQCQIQVSYAIGVAEPTSISIDTFGTGKISEEKLIALVCEHFDLRPKGIVQMLDLLRPIYGKSAAYGHFGREEPEFTWERTDKAASLKAAAGL
notes: methionine S-adenosyltransferase of Neisseria gonorrhoeae; also called NgMAT; N. gonorrhoeae MAT; source: E. coli BL21 (DE3), pET24a, purified (Ni-NTA)
As for B4, the “stoichiometry N” value in data set [7] was determined as 4; in data set [8], 2.
